Molecular target: T1, HR-N (SN50) peptide of the SARS-CoV spike protein (SARS-CoV, UniProt P59594 903-952)
T1 peptide: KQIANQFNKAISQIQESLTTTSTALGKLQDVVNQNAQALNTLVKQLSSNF
Assay: circular dichroism

B1: HR-C (SC40) peptide of the SARS-CoV spike protein (peptide)
peptide: LGDISGINASVVNIQKEIDRLNEVAKNLNESLIDLQELGK
binding result: binds
